Earlier results, collected in publication PMC11475284.
Several values for one entry are separate records, joined by “and”; a condition that tells them apart may be missing. Identical values can stand only once.

Biological target: Axin1 DAX (Homo sapiens) (UniProt O15169)
Test: SEC-MALS

In the case of Axin1 DAX (from UniProt O15169), the Kd is listed as 900 nM and 240 nM.
